Reference: publication PMC3499431

Target: 3xFlag20Q-htt (full-length humanized normal huntingtin, chimeric mouse/human exon 1 with a 20Q stretch and the human PRR, with a 3xFlag N-terminal epitope tag) (mouse | human)
Assay: co-IP; 500 ug whole brain cytoplasmic extract (mice 13, 16 or 27 months old) with 5-6 ug FLAG M2 or 1C2 antibody overnight at 4°C, captured on Protein G-agarose beads for 3 hr; same extraction buffer; eluted by boiling in SDS sample buffer; bound and non-bound fractions blotted with 1C2 and MAB2166; control without antibody

- percent of soluble full-length mutant htt associated with 3xFlag20Q-htt: < 2.5%
Substance: 140Q-htt (soluble full-length mutant huntingtin of the CAG140 knock-in allele, chimeric mouse/human exon 1 with a 140Q stretch and the human PRR) (natural protein)
